30 sequences from the supplement of paper PMC9170038 can be followed below.

The data set relates to MS2 coat protein. In words: apparent KD of MS2 coat protein; designed switch direction (-1 OFF switch, 1 ON switch): -1; higher = weaker reporter binding. In short, it runs like this: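 Each step of the titration lasted 0.8–1.5 h at the lowest concentration and 10–20 min at the highest. The protein, SNAP-549-labelled MS2 coat protein, went from 0.7 or 1.5 nM doubling to 3 µM over RNA switches transcribed on Illumina chips by stalled E. coli RNA polymerase. Normalised cluster fluorescence was curve-fitted, and the per-design median over clusters is given as apparent KD.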

[1] abbreviates: Eterna round: R95, input ligand: FMN 200 uM.
[2] abbreviates: Eterna round: R95, input ligand: microRNA oligo, concentration not stated.
Setting [3] is: Eterna round: R95, input ligand: none.
The mark [4] stands for this setting: input ligand: microRNA oligo, concentration not stated.

For “GUAGAUCGAGUUAGGAUAUGAUUAAAAUCCGGAUAUCAGAAGGAACUUGAGGAUCACCCAAGUAUAGAUGAUUU [JR_BMEx4_Sub055] (Eterna round: R97, puzzle: Brourd's mod of Exclusion 4)”, the “apparent KD of MS2 coat protein” value stood at 0.104 µM (input ligand: FMN 200 uM) and 0.0232 µM (input ligand: none).

On to “UUUAAUUUUUUUUUUUUACAAGCUUUUUGCUCGUCUUAUACAUGAGGAUCACCCAUGUGGGUGAAAGAUAGAUUGUC [JMF's solution 3] (puzzle: Sensor v3, turn-off variant 2)”, for which the “apparent KD of MS2 coat protein” value is, setting by setting: under setting [1], 0.0872 µM; under setting [2], 0.0204 µM; under setting [3], 0.0358 µM.

On to “AACAGUAGAGGAUAUACAUGAGGAUCACCCAUGUGAUAUUUACGUGGCGUACCACGAAGUAGAAGGCUACUGGA [JL Maslow Revisted mod 14] (Eterna round: R96, puzzle: Exclusion 3)”, for which the “apparent KD of MS2 coat protein” value came out at 0.512 µM (input ligand: FMN 200 uM), 0.0325 µM under setting [4] and 0.0348 µM (input ligand: none).

As for “CCUCCACAUGAGGAUCACCCAUGUCAGGAUAUCGUGUGUGCUUUUUCGGUCUUUCGUGCGAGAAGGGACGUCUG (puzzle: Exclusion 1)”, the “apparent KD of MS2 coat protein” value under setting [2] is 0.0255 µM.

For “UGAGACUGAGGAUAUACUAGCCCAUAAAGUGGGUUGUGGGUACAUGAGGAUCACCCAUGUAGAAGGCAGCCUCG [Omei Repeat Sequence v4] (Eterna round: R97, puzzle: Exclusion 2)”, the “apparent KD of MS2 coat protein” value runs as follows: (input ligand: FMN 200 uM) 0.516 µM; (input ligand: none) 0.0754 µM.

Consider “UUUUACGUAGGAUAUACAUUUUUUUUAUUAUUUUCAUUAUUACAUGAGGAUCACCCAUGUAGAAGGACGAUUUU [My Design] (puzzle: Exclusion 2)”, for which the “apparent KD of MS2 coat protein” value under setting [2] is 0.025 µM.

Consider “ACGAGGAUUACAGGAUAUGAAGCUAAAACGGCGUUAGAAGGGUAUACAGAGUUACAUGAGGAUCACCCAUGUUGUGAUUUCGAA [AK ExNG1-V2-4.1] (Eterna round: R96, puzzle: Exclusion NG 1)”, for which the “apparent KD of MS2 coat protein” value by setting is: (input ligand: FMN 200 uM) 0.158 µM; under setting [4], 0.115 µM; (input ligand: none) 0.134 µM.

“CGGAUGUAAGGAUAUUAGUAGUAGUCAGAAUAGACUAUUACUGAGAAGGUACAUGAGGAUCACCCAUGUUUCCG [Eli x4 4.18] (Eterna round: R97, puzzle: Exclusion 4)”: the “apparent KD of MS2 coat protein” value was found to be 0.0275 µM (input ligand: FMN 200 uM) and 0.0168 µM (input ligand: none).

With “AAAUAACAAGCGAGAUCCUACAUGAGGAUCACCCAUGUGCUCGUCUUAUUAAGUACUAUCACGAAAGUGAUAGUACA [Mat - Sensor v3 - turn-off var 1 - Eli Mod - D66] (puzzle: Sensor v3, turn-off variant 1)”, the “apparent KD of MS2 coat protein” value under setting [1] amounted to 0.0184 µM, the “apparent KD of MS2 coat protein” value under setting [2] was 0.239 µM and the “apparent KD of MS2 coat protein” value under setting [3] is 0.0184 µM.

Consider “AUUAUGUUAGGAUAUGCUUAUGGUGGAUAGUCCAGUAUGGUGUAGAAGGGACAUGAGGAUCACCCAUGUGCUGA [EX4 #33] (Eterna round: R97, puzzle: Exclusion 4)”, for which the “apparent KD of MS2 coat protein” value was determined as 0.0352 µM (input ligand: FMN 200 uM) and 0.034 µM (input ligand: none).

As to “UUAACGUCAGGAUAUGCAUAAUAUAUUAUAUUAUAAUAUAUACAUGAGGAUCACCCAUGUAGAAGGGACAUUAU [LRO-Excl2-01-Fireball XL5] (Eterna round: R97, puzzle: Exclusion 2)”, the “apparent KD of MS2 coat protein” value was 0.0427 µM (input ligand: FMN 200 uM) and 0.0298 µM (input ligand: none).

Turning to “GUGUAGGGAGGAUAUACAUGAGGAUCACCCAUGUGAAUAAGAUAGAAUAAGAUAAAGUGUAGAAGGUCUAGUGU [Excluse me!!! 12 - Jieux - Exclusion 3] (puzzle: Exclusion 3)”, under setting [2], the “apparent KD of MS2 coat protein” value was determined as 0.0527 µM.

Regarding “GUGUAACUACACGGGCUCAACAUGAGGAUCACCCAUGUCAUACACGCAAGCUUUUUGCUUGUCUUAUCUGUCCGUGA [Raenzama] (puzzle: Sensor v3, turn-off variant 1)”, the “apparent KD of MS2 coat protein” value is 0.0121 µM under setting [1], 0.0135 µM under setting [2] and 0.0104 µM under setting [3].

With “AGGUAGUCAGGAUAUUAGGAGUAGCGGGAUAACGCUACGAGUGAGAAGGGACAUGAGGAUCACCCAUGUUUUGU [JR_Ex4_Sub068] (Eterna round: R97, puzzle: Exclusion 4)”, the “apparent KD of MS2 coat protein” value is 0.0243 µM (input ligand: FMN 200 uM) and 0.0231 µM (input ligand: none).

For the sequence “UACAUGAGGAUCACCCAUGUUUUGUCGUGUAUGGUAUUUAUCUAGGAUAUCAUUUUAUUUAGGUAUGAGAAGGAGAAUAUUAAU [JMF's solution 93] (Eterna round: R96, puzzle: Exclusion NG 3)”, the “apparent KD of MS2 coat protein” value under setting [4] was found to be 0.0239 µM.

As for “ACAAGCUUUUUGUUCGUCUUAUACACUCCUAAUAAGACAACAUGAGGAUCACCCAUGUAACAAACACGAACUCAUGU [Sesor Array 7 - Jieux - Sensor v3, turn-off variant 2] (puzzle: Sensor v3, turn-off variant 2)”, the “apparent KD of MS2 coat protein” value is, setting by setting: under setting [1], 0.174 µM; under setting [2], 0.369 µM; under setting [3], 0.195 µM.

With “CCAAGCUUCUUCAUUAUCCACAUGAGGAUCACCCAUGUCUUGGCAAUUAUGACCUGCCCGUCAGGAGCUCGUCUUAU [Sensor-V1 #38] (Eterna round: R97, puzzle: Sensor, turn-off variant 1)”, the “apparent KD of MS2 coat protein” value reads like this: (input ligand: FMN 200 uM) 0.806 µM; (input ligand: none) 0.951 µM.

On to “ACAUGACCGCUAGGAUAUAGAUGACAUGAGGAUCACCCAUGUUGUCCCAUGUUGACGAUCACCGACUAGAAGGAGCCACCCAUG [ExNG2 5th] (Eterna round: R96, puzzle: Exclusion NG 2)”, for which the “apparent KD of MS2 coat protein” value runs as follows: (input ligand: FMN 200 uM) 0.0534 µM; under setting [4], 0.0346 µM; (input ligand: none) 0.0525 µM.

For “AAUUAUUUAUGAGGAUAUUGUGGUGAAACACCACAAGAAGGCAUGAUACACAUGAGGAUCACCCAUGUGAGCCUUAUGCAUAUA [Ex NG1 #57] (Eterna round: R96, puzzle: Exclusion NG 1)”, under setting [4], the “apparent KD of MS2 coat protein” value was found to be 0.0165 µM.

For the sequence “UUUUACAAGCCAGAUCCUCACAUGAGGAUCACCCAUGUGCUCGUCUGUUUUCGCACUAUCACGUUUGUGAUAGUGCU [Level Boss var2-10] (puzzle: Sensor v3, turn-off variant 1)”, the “apparent KD of MS2 coat protein” value runs as follows: under setting [1], 0.162 µM; under setting [2], 0.0129 µM; under setting [3], 0.288 µM.

In the case of “AGCCUACAUGAGGAUCACCCAUGUCAGGAUAUCUCGCGACAUGUCAAGUUCACGUUGCAGAGAAGGGACUCGGG [Ononxe] (Eterna round: R96, puzzle: Exclusion 1)”, the “apparent KD of MS2 coat protein” value runs as follows: (input ligand: FMN 200 uM) 0.108 µM; under setting [4], 0.041 µM; (input ligand: none) 0.0541 µM.

For “CUAGUAUAUCAGGAUAUGAUAGCUUAUAGCAUAUCAGAAGGGAUUACAUGAGGAUCACCCAUGUGAAGGGAUGA [eternacac ex6r4 sub17] (Eterna round: R97, puzzle: Exclusion 6)”, the “apparent KD of MS2 coat protein” value is, setting by setting: (input ligand: FMN 200 uM) 0.331 µM; (input ligand: none) 0.275 µM.

As for “CUUGUUUAUGUGAGGAUAUACUGUUAGUAAUGUUUGUAGAAGGUACAUGAGGAUCACCCAUGUUUAUUUUUUUU [JR_BME4_Sub044] (puzzle: Brourd's mod of Exclusion 4)”, under setting [2], the “apparent KD of MS2 coat protein” value came to 0.0202 µM.

Regarding “UUUUACAAGCUAAGAUCCUACAUGAGGAUCACCCAUGUGGUCCGGUGACGUGAGUCACCGGACUUAGCUCGUCUUGC [salish99_S_TOV1_R5_088] (Eterna round: R97, puzzle: Sensor, turn-off variant 1)”, the “apparent KD of MS2 coat protein” value (input ligand: FMN 200 uM) was 0.0362 µM and the “apparent KD of MS2 coat protein” value (input ligand: none) amounted to 0.0437 µM.

Regarding “CAUGAUUGGCGAGGAUAUUGACCUAGUUCGCGACGAGAAGGCGCCUGUCACAUGAGGAUCACCCAUGUGAAUCUGGUGAAAGAG [Ex NG1 #91] (Eterna round: R96, puzzle: Exclusion NG 1)”, the “apparent KD of MS2 coat protein” value turned out to be 0.0145 µM (input ligand: FMN 200 uM), 0.0114 µM under setting [4] and 0.0203 µM (input ligand: none).

Regarding “UUAUUAGCAGGAUAUAUCCAGGAUUACAUGAGGAUCACCCAUGUGGCCGCUUGAAAUUCUAUAGAAGGGCUUUAUU [Mod of ViennaUCT 36 - Jieux - Exclusion 5] (Eterna round: R97, puzzle: Exclusion 5)”, the “apparent KD of MS2 coat protein” value runs as follows: (input ligand: FMN 200 uM) 0.0527 µM; (input ligand: none) 0.0458 µM.

As to “GGGCUGUCAGGAUAUGGGCCCGGGCCCGAAAGGGUUUGGGCCCAGAAGGGACAUGAGGAUCACCCAUGUGGCCC [-43.8, -42.8 kcal, A 20%, 5b-0] (Eterna round: R97, puzzle: Exclusion 4)”, the “apparent KD of MS2 coat protein” value was determined as 0.0342 µM (input ligand: FMN 200 uM) and 0.0345 µM (input ligand: none).

Regarding “GGAGGAAACGUAGGAUAUUGAAUAAAGCGGAAACGCAAGACAUGAGGAUCACCCAUGUGUCCGGACGAGAAGGGCGAAGAAGAA [AK 1] (Eterna round: R96, puzzle: Exclusion NG 2)”, the “apparent KD of MS2 coat protein” value runs as follows: (input ligand: FMN 200 uM) 0.0598 µM; under setting [4], 0.0601 µM; (input ligand: none) 0.0808 µM.

As to “UUUCUGUGAGGAUAUCAGUAGUAAAUAAAUAAAAUUACUACUGAGAAGGCACAUGAGGAUCACCCAUGUUCCUU [salish99_ex3_r3_093] (Eterna round: R96, puzzle: Exclusion 4)”, the “apparent KD of MS2 coat protein” value by setting is: (input ligand: FMN 200 uM) 0.0351 µM; under setting [4], 0.0129 µM; (input ligand: none) 0.0165 µM.

Take “AGUACUGACACGUUGGUGUUAGUACCAUAAGCUUGUGAUACAUGAGGAUCACCCAUGUCCUCAUAAGCUCGUCUUAU [salish99_TOv2_r2_096] (puzzle: Sensor v3, turn-off variant 2)”: the “apparent KD of MS2 coat protein” value is, setting by setting: under setting [1], 0.0274 µM; under setting [2], 0.484 µM; under setting [3], 0.026 µM.
